Experimental data published in patent publication US20140072582A1.

Target: complement component C1q human serum (Sigma Cat#:C1740-0.5MG) (human) (UniProt P02745)
Experiment: ELISA, C1q coated on the plate

Chain of UniProt P02745 (P02745 23-245 limits assumed, chain 1 of 3): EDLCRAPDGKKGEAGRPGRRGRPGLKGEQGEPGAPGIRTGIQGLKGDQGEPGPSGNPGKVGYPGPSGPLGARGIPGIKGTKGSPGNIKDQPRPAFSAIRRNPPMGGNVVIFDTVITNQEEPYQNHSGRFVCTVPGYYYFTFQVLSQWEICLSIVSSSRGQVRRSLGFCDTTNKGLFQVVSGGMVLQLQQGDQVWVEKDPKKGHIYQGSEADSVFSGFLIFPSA
Chain of UniProt P02745 (P02746 28-253 limits assumed, chain 2 of 3, further chain): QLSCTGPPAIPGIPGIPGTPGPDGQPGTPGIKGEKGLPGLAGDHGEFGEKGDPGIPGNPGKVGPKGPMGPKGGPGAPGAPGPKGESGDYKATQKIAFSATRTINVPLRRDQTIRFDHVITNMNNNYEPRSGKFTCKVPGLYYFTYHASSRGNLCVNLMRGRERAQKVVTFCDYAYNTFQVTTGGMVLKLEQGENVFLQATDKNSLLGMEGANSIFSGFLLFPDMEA
Chain of UniProt P02745 (P02747 29-245 limits assumed, chain 3 of 3, further chain): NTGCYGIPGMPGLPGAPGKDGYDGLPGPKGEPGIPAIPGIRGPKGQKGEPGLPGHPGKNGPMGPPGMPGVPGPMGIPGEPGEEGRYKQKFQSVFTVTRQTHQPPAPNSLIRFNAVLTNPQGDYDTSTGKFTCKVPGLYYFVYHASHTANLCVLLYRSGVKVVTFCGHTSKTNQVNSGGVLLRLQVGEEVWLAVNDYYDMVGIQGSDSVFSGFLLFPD

| Substance | EC50 |
| --- | --- |
| GB4500 (Rituximab), anti-CD20 monoclonal antibody | 34.5 µg/mL |
| GB7500 (Adalimumab), anti-TNF monoclonal antibody | 202 µg/mL |
